From patent publication EP4692114A1, “CALCITONIN ANALOGUE, AND DERIVATIVE THEREOF AND USE THEREOF” (Hangzhou Sciwind Biosciences Co., Ltd., priority 2023, dated 2024)
*1 amine or outer side, *2 acyl side, *3 side chain or, on linkers, in order; H or OH if unused. The star is where a group is joined. C22 diacid = O=C(O)CCCCCCCCCCCCCCCCCCCCC(=O)*; C20 diacid = O=C(O)CCCCCCCCCCCCCCCCCCC(=O)*; γGlu = O=C(O)[C@H](CCC(=O)[*:2])N[*:1]; AEEA = NCCOCCOCC(=O)O

T1: human amylin receptor (AMY3) on CHO-K1/Gal5/AMY3 cells (human, UniProt P30988 25-474; O60896 24-148)
T1 sequence (looked up) 1: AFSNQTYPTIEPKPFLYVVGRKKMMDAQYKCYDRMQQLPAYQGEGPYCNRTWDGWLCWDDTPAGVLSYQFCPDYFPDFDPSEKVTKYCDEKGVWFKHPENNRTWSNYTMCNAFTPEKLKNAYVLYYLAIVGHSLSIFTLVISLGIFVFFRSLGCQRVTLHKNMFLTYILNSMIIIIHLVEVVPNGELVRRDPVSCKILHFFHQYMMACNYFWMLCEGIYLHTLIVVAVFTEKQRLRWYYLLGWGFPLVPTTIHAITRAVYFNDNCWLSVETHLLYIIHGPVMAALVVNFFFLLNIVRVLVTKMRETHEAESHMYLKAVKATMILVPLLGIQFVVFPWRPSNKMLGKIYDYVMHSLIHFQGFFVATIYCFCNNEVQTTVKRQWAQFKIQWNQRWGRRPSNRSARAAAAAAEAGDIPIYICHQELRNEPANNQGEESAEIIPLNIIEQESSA
T1 sequence (looked up) 2: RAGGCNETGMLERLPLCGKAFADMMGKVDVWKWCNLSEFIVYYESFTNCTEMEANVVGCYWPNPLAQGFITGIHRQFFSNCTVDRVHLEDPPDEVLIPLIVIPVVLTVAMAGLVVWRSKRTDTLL


Molecular target: T1, human amylin receptor (AMY3) on …
Experiment: cell-based or functional assay

EC50/nM, CRE-luciferase in amylin receptor/CRE-luc CHO cells | Binder
0.017 nM | {C20 diacid-γGlu}-ASQLSTAVLGRLSQELHRLQDYPRTDVGAESP-NH2 (SMILES CC(C)C[C@H](NC(=O)[C@H](CCCNC(=N)N)NC(=O)CNC(=O)[C@H](CC(C)C)NC(=O)[C@@H](NC(=O)[C@H](C)NC(=O)[C@@H](NC(=O)[C@H](CO)NC(=O)[C@H](CC(C)C)NC(=O)[C@H](CCC(N)=O)NC(=O)[C@H](CO)NC(=O)[C@H](C)NC(=O)CC[C@H](NC(=O)CCCCCCCCCCCCCCCCCCC(=O)O)C(=O)O)[C@@H](C)O)C(C)C)C(=O)N[C@@H](CO)C(=O)N[C@@H](CCC(N)=O)C(=O)N[C@@H](CCC(=O)O)C(=O)N[C@@H](CC(C)C)C(=O)N[C@@H](Cc1c[nH]cn1)C(=O)N[C@@H](CCCNC(=N)N)C(=O)N[C@@H](CC(C)C)C(=O)N[C@@H](CCC(N)=O)C(=O)N[C@@H](CC(=O)O)C(=O)N[C@@H](Cc1ccc(O)cc1)C(=O)N1CCC[C@H]1C(=O)N[C@@H](CCCNC(=N)N)C(=O)N[C@H](C(=O)N[C@@H](CC(=O)O)C(=O)N[C@H](C(=O)NCC(=O)N[C@@H](C)C(=O)N[C@@H](CCC(=O)O)C(=O)N[C@@H](CO)C(=O)N1CCC[C@H]1C(N)=O)C(C)C)[C@@H](C)O) [calcitonin derivative M20]
0.017 nM | {C20 diacid-γGlu}-ASQLSTAVLGRLSDELHRLQDLPRTDVGSGSP-NH2 (SMILES CC(C)C[C@H](NC(=O)[C@H](CCCNC(=N)N)NC(=O)CNC(=O)[C@H](CC(C)C)NC(=O)[C@@H](NC(=O)[C@H](C)NC(=O)[C@@H](NC(=O)[C@H](CO)NC(=O)[C@H](CC(C)C)NC(=O)[C@H](CCC(N)=O)NC(=O)[C@H](CO)NC(=O)[C@H](C)NC(=O)CC[C@H](NC(=O)CCCCCCCCCCCCCCCCCCC(=O)O)C(=O)O)[C@@H](C)O)C(C)C)C(=O)N[C@@H](CO)C(=O)N[C@@H](CC(=O)O)C(=O)N[C@@H](CCC(=O)O)C(=O)N[C@@H](CC(C)C)C(=O)N[C@@H](Cc1c[nH]cn1)C(=O)N[C@@H](CCCNC(=N)N)C(=O)N[C@@H](CC(C)C)C(=O)N[C@@H](CCC(N)=O)C(=O)N[C@@H](CC(=O)O)C(=O)N[C@@H](CC(C)C)C(=O)N1CCC[C@H]1C(=O)N[C@@H](CCCNC(=N)N)C(=O)N[C@H](C(=O)N[C@@H](CC(=O)O)C(=O)N[C@H](C(=O)NCC(=O)N[C@@H](CO)C(=O)NCC(=O)N[C@@H](CO)C(=O)N1CCC[C@H]1C(N)=O)C(C)C)[C@@H](C)O) [calcitonin derivative M50]
0.017 nM | {C20 diacid}-EASQLSTAVLGRLSEELHRLQDYPRTDVGSGSP-NH2 (SMILES CC(C)C[C@H](NC(=O)[C@H](CCCNC(=N)N)NC(=O)CNC(=O)[C@H](CC(C)C)NC(=O)[C@@H](NC(=O)[C@H](C)NC(=O)[C@@H](NC(=O)[C@H](CO)NC(=O)[C@H](CC(C)C)NC(=O)[C@H](CCC(N)=O)NC(=O)[C@H](CO)NC(=O)[C@H](C)NC(=O)[C@H](CCC(=O)O)NC(=O)CCCCCCCCCCCCCCCCCCC(=O)O)[C@@H](C)O)C(C)C)C(=O)N[C@@H](CO)C(=O)N[C@@H](CCC(=O)O)C(=O)N[C@@H](CCC(=O)O)C(=O)N[C@@H](CC(C)C)C(=O)N[C@@H](Cc1c[nH]cn1)C(=O)N[C@@H](CCCNC(=N)N)C(=O)N[C@@H](CC(C)C)C(=O)N[C@@H](CCC(N)=O)C(=O)N[C@@H](CC(=O)O)C(=O)N[C@@H](Cc1ccc(O)cc1)C(=O)N1CCC[C@H]1C(=O)N[C@@H](CCCNC(=N)N)C(=O)N[C@H](C(=O)N[C@@H](CC(=O)O)C(=O)N[C@H](C(=O)NCC(=O)N[C@@H](CO)C(=O)NCC(=O)N[C@@H](CO)C(=O)N1CCC[C@H]1C(N)=O)C(C)C)[C@@H](C)O) [calcitonin derivative M52]
0.017 nM | {C22 diacid-γGlu-AEEA-AEEA}-ASQLSTAVLGRLSEELHRLQDYPRTDVGSGSP-NH2 (SMILES CC(C)C[C@H](NC(=O)[C@H](CCCNC(=N)N)NC(=O)CNC(=O)[C@H](CC(C)C)NC(=O)[C@@H](NC(=O)[C@H](C)NC(=O)[C@@H](NC(=O)[C@H](CO)NC(=O)[C@H](CC(C)C)NC(=O)[C@H](CCC(N)=O)NC(=O)[C@H](CO)NC(=O)[C@H](C)NC(=O)COCCOCCNC(=O)COCCOCCNC(=O)CC[C@H](NC(=O)CCCCCCCCCCCCCCCCCCCCC(=O)O)C(=O)O)[C@@H](C)O)C(C)C)C(=O)N[C@@H](CO)C(=O)N[C@@H](CCC(=O)O)C(=O)N[C@@H](CCC(=O)O)C(=O)N[C@@H](CC(C)C)C(=O)N[C@@H](Cc1c[nH]cn1)C(=O)N[C@@H](CCCNC(=N)N)C(=O)N[C@@H](CC(C)C)C(=O)N[C@@H](CCC(N)=O)C(=O)N[C@@H](CC(=O)O)C(=O)N[C@@H](Cc1ccc(O)cc1)C(=O)N1CCC[C@H]1C(=O)N[C@@H](CCCNC(=N)N)C(=O)N[C@H](C(=O)N[C@@H](CC(=O)O)C(=O)N[C@H](C(=O)NCC(=O)N[C@@H](CO)C(=O)NCC(=O)N[C@@H](CO)C(=O)N1CCC[C@H]1C(N)=O)C(C)C)[C@@H](C)O) [calcitonin derivative M66]
0.017 nM | {C22 diacid-γGlu-AEEA-AEEA-AEEA-AEEA}-ASQLSTAVLGRLSEELHRLQDYPRTDVGSGSP-NH2 (SMILES CC(C)C[C@H](NC(=O)[C@H](CCCNC(=N)N)NC(=O)CNC(=O)[C@H](CC(C)C)NC(=O)[C@@H](NC(=O)[C@H](C)NC(=O)[C@@H](NC(=O)[C@H](CO)NC(=O)[C@H](CC(C)C)NC(=O)[C@H](CCC(N)=O)NC(=O)[C@H](CO)NC(=O)[C@H](C)NC(=O)COCCOCCNC(=O)COCCOCCNC(=O)COCCOCCNC(=O)COCCOCCNC(=O)CC[C@H](NC(=O)CCCCCCCCCCCCCCCCCCCCC(=O)O)C(=O)O)[C@@H](C)O)C(C)C)C(=O)N[C@@H](CO)C(=O)N[C@@H](CCC(=O)O)C(=O)N[C@@H](CCC(=O)O)C(=O)N[C@@H](CC(C)C)C(=O)N[C@@H](Cc1c[nH]cn1)C(=O)N[C@@H](CCCNC(=N)N)C(=O)N[C@@H](CC(C)C)C(=O)N[C@@H](CCC(N)=O)C(=O)N[C@@H](CC(=O)O)C(=O)N[C@@H](Cc1ccc(O)cc1)C(=O)N1CCC[C@H]1C(=O)N[C@@H](CCCNC(=N)N)C(=O)N[C@H](C(=O)N[C@@H](CC(=O)O)C(=O)N[C@H](C(=O)NCC(=O)N[C@@H](CO)C(=O)NCC(=O)N[C@@H](CO)C(=O)N1CCC[C@H]1C(N)=O)C(C)C)[C@@H](C)O) [calcitonin derivative M67]
0.028 nM | {C20 diacid-γGlu}-ASQLSTAVLGRLSQELHRLQDLPRTDVGSGSP-NH2 (SMILES CC(C)C[C@H](NC(=O)[C@H](CCCNC(=N)N)NC(=O)CNC(=O)[C@H](CC(C)C)NC(=O)[C@@H](NC(=O)[C@H](C)NC(=O)[C@@H](NC(=O)[C@H](CO)NC(=O)[C@H](CC(C)C)NC(=O)[C@H](CCC(N)=O)NC(=O)[C@H](CO)NC(=O)[C@H](C)NC(=O)CC[C@H](NC(=O)CCCCCCCCCCCCCCCCCCC(=O)O)C(=O)O)[C@@H](C)O)C(C)C)C(=O)N[C@@H](CO)C(=O)N[C@@H](CCC(N)=O)C(=O)N[C@@H](CCC(=O)O)C(=O)N[C@@H](CC(C)C)C(=O)N[C@@H](Cc1c[nH]cn1)C(=O)N[C@@H](CCCNC(=N)N)C(=O)N[C@@H](CC(C)C)C(=O)N[C@@H](CCC(N)=O)C(=O)N[C@@H](CC(=O)O)C(=O)N[C@@H](CC(C)C)C(=O)N1CCC[C@H]1C(=O)N[C@@H](CCCNC(=N)N)C(=O)N[C@H](C(=O)N[C@@H](CC(=O)O)C(=O)N[C@H](C(=O)NCC(=O)N[C@@H](CO)C(=O)NCC(=O)N[C@@H](CO)C(=O)N1CCC[C@H]1C(N)=O)C(C)C)[C@@H](C)O) [calcitonin derivative M18]
0.037 nM | {C20 diacid-γGlu}-RSQLSTDVLGRLSQELHRLQDYPRTDVGSGSP-NH2 (SMILES CC(C)C[C@H](NC(=O)[C@H](CCCNC(=N)N)NC(=O)CNC(=O)[C@H](CC(C)C)NC(=O)[C@@H](NC(=O)[C@H](CC(=O)O)NC(=O)[C@@H](NC(=O)[C@H](CO)NC(=O)[C@H](CC(C)C)NC(=O)[C@H](CCC(N)=O)NC(=O)[C@H](CO)NC(=O)[C@H](CCCNC(=N)N)NC(=O)CC[C@H](NC(=O)CCCCCCCCCCCCCCCCCCC(=O)O)C(=O)O)[C@@H](C)O)C(C)C)C(=O)N[C@@H](CO)C(=O)N[C@@H](CCC(N)=O)C(=O)N[C@@H](CCC(=O)O)C(=O)N[C@@H](CC(C)C)C(=O)N[C@@H](Cc1c[nH]cn1)C(=O)N[C@@H](CCCNC(=N)N)C(=O)N[C@@H](CC(C)C)C(=O)N[C@@H](CCC(N)=O)C(=O)N[C@@H](CC(=O)O)C(=O)N[C@@H](Cc1ccc(O)cc1)C(=O)N1CCC[C@H]1C(=O)N[C@@H](CCCNC(=N)N)C(=O)N[C@H](C(=O)N[C@@H](CC(=O)O)C(=O)N[C@H](C(=O)NCC(=O)N[C@@H](CO)C(=O)NCC(=O)N[C@@H](CO)C(=O)N1CCC[C@H]1C(N)=O)C(C)C)[C@@H](C)O) [calcitonin derivative M35]
